For orientation: Kd means the concentration at which binding is half-saturated. One may read the EC50 as the concentration at which the effect is half-maximal. One may read the koff as a measure of how fast the partners let go of each other. As a reminder, the kon is a measure of how fast the partners come together. As usually defined, the IC50 is the concentration that inhibits the measured activity by half.

For test [1], the target named is T1, Recombinant human VEGFA (Sino Biological, catalog number 11066-HNAB) (human).
T1 chain: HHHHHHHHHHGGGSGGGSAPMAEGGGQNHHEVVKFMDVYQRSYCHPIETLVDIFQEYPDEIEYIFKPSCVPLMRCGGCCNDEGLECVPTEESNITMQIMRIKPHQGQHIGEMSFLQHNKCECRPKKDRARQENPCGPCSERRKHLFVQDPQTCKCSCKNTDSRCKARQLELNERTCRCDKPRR
The test can be described thus: cell-based or functional assay.

In test [2] the target is Human PD-1 on the cell surface (Jurkat PD-1 effector cells, Promega); CD4 T cells in the mixed lymphocyte … (human, UniProt Q15116 25-288). The test can be described thus: cell-based or functional assay.
Test [3] deals with T1, Recombinant human VEGFA (Sino …). The test can be described thus: BLI (Octet RED96e), told of the group. (In general: In BLI a coated tip is dipped into the sample, and binding shifts an interference pattern.)
Test [4] has as its target T2, Recombinant human PD-1 (prepared by Suzhou Junmeng Biopharm Co., Ltd. according to the sequence of NCBI … (human, UniProt Q15116 25-170, limits assumed)).
T2 construct: Soluble recombinant protein used in BLI and coated in ELISA; also called antigen PD-1
The test can be described thus: indirect ELISA, human PD-1 coated at 0.3 µg/mL (FIG. 6a). A general note: ELISA stands for enzyme-linked immunosorbent assay.

Test [5] has as its target T1, Recombinant human VEGFA (Sino …). The test can be described thus: indirect ELISA, human VEGFA coated at 0.5 µg/mL (FIG. 7a).
For test [6] the target is unchanged. In words: indirect ELISA on coated human VEGFA, relative to Avastin control.
Test [7] concerns the target T2, Recombinant human PD-1 (prepared by …). The test can be described thus: indirect ELISA on coated human PD-1; stability sample, 5°C, 0 week.
Test [8] has the same target. The test can be described thus: indirect ELISA on coated human PD-1; stability sample, 5°C, 4 week.
Test [9] deals with T1, Recombinant human VEGFA (Sino …). In words: indirect ELISA on coated human VEGF; stability sample, 5°C, 0 week.
The target is the same in test [10]. The test can be described thus: indirect ELISA on coated human VEGF; stability sample, 5°C, 2 week.
The target is the same in test [11]. In words: indirect ELISA on coated human VEGF; stability sample, 5°C, 4 week.
Test [12] addresses T2, Recombinant human PD-1 (prepared by …). In words: BLI (Octet RED96e), antibody captured at 5 µg/mL, PD-1 at 210 and 70 nM.
Test [13] has as its target T1, Recombinant human VEGFA (Sino …). In words: BLI (Octet RED96e), antibody captured at 5 µg/mL, VEGFA at 50 and 25 nM.
Test [14] addresses T2, Recombinant human PD-1 (prepared by …). In words: indirect ELISA on coated human PD-1, relative to TAB001 (JS001) control.
Test [15] shares this target. The test can be described thus: indirect ELISA on coated human PD-1; sample in human serum, 37°C, 0 week.
Test [16] shares this target. In words: indirect ELISA on coated human PD-1; sample in human serum, 37°C, 2 week.
Test [17] shares this target. The test can be described thus: indirect ELISA on coated human PD-1; sample in human serum, 37°C, 4 week.
Test [18] concerns the target T1, Recombinant human VEGFA (Sino …). The test can be described thus: indirect ELISA on coated human VEGF; sample in human serum, 37°C, 0 week.
Test [19] shares this target. The test can be described thus: indirect ELISA on coated human VEGF; sample in human serum, 37°C, 2 week.
Test [20] shares this target. In words: indirect ELISA on coated human VEGF; sample in human serum, 37°C, 4 week.
The target is the same in test [21]. In words: competitive ELISA against VEGFR2 on coated VEGFA, relative to Avastin control.
For test [22], the target named is T2, Recombinant human PD-1 (prepared by …). In words: competitive ELISA, PD-1 coated, competitor Biotin-PD-L1 hFc at 4.0 µg/mL (FIG. 9a).
For test [23], the target named is T1, Recombinant human VEGFA (Sino …). In words: competitive ELISA, VEGFA coated, competitor biotinylated VEGFR2 at 0.3 µg/mL (FIG. 8a).
Test [24] deals with T2, Recombinant human PD-1 (prepared by …). The test can be described thus: competitive ELISA against PD-L1 hFc on coated PD-1, relative to TAB001 (JS001) control.
Test [25] shares this target. In words: indirect ELISA, human PD-1 coated at 0.3 µg/mL (FIG. 6b).
Test [26] has as its target T1, Recombinant human VEGFA (Sino …). The test can be described thus: indirect ELISA, human VEGFA coated at 0.5 µg/mL (FIG. 7b).
Test [27] deals with T2, Recombinant human PD-1 (prepared by …). The test can be described thus: competitive ELISA, PD-1 coated, competitor Biotin-PD-L1 hFc at 4.0 µg/mL (FIG. 9b).
For test [28], the target named is T1, Recombinant human VEGFA (Sino …). In words: competitive ELISA, VEGFA coated, competitor biotinylated VEGFR2 at 0.3 µg/mL (FIG. 8b).

B1: Bispecific antibody molecule 23 (bispecific antibody, human IgG4 S228P, kappa)
light: DVVMTQSPLSLPVTLGQPASISCRSSQSIVHSNGNTYLEWYLQKPGQSPQLLIYKVSNRFSGVPDRFSGSGSGTDFTLKISRVEAEDVGVYYCFQGSHVPLTFGQGTKLEIKRTVAAPSVFIFPPSDEQLKSGTASVVCLLNNFYPREAKVQWKVDNALQSGNSQESVTEQDSKDSTYSLSSTLTLSKADYEKHKVYACEVTHQGLSSPVTKSFNRGEC
heavy: not shown
notes: expressed in CHO-K1; also called Antibody 23; antibody 23 (IgG4)
B1: the “IC50, VEGFA-induced proliferation of HUVEC cells” value (shortened to “IC50, VEGFA-induced proliferation”) in test [1] was determined as 81.1 nM. In [2], the “EC50, PD-1/PD-L1 luciferase reporter gene system (Jurkat PD-1 / CHO PD-L1)” value (“EC50 … (Jurkat PD-1 / CHO PD-L1)” for short) was determined as 11.9 nM. In addition, the Kd in test [3] is under 0.5 nM; in test [12], 1.73 nM; in [13], under 0.0186 nM. Moreover, the EC50 in test [4] turned out to be 6.93 nM; in test [5], 2.05 nM. For the same molecule, the “Relative binding activity (%)” value in [6] came to 175%; in [14], 52%; in [21] it was 97%; in [24], 46%. Besides, the “Binding activity (%), PD-1 end” value in test [7] was determined as 105%; in [8], 97%; in test [15], 121%; in [16], 95%; in [17], 82%. In addition, the “Binding activity (%), VEGF end” value in test [9] was determined as 99%; in test [10], 104%; in [11], 81%; in test [18], 98%; in [19] it was 96%; in test [20], 79%. Besides, the results for the koff in test [12] and in [13] were 7.73e-05 s⁻¹ and under 1e-05 s⁻¹, respectively. Further, the kon in test [12] is 44800 M⁻¹ s⁻¹; in test [13], 538000 M⁻¹ s⁻¹. The IC50 was 293 nM in test [22] and 679 nM in test [23].

B2: Bispecific antibody molecule 27 (bispecific antibody, human IgG4 S228P, kappa)
light: B1 light
heavy: not shown
notes: Anti-PD-1 IgG4 (JS001) with the anti-VEGF VHH inserted between CH1 and the hinge of each heavy chain; also called Antibody 27; antibody 27 (IgG4)
In the case of B2, the “IC50, VEGFA-induced proliferation” value in [1] turned out to be 104 nM. Also, the “EC50 … (Jurkat PD-1 / CHO PD-L1)” value in test [2] came to 16.9 nM. Besides, the Kd in test [3] is under 0.5 nM; in test [12] it was 0.864 nM; in [13], 0.0521 nM. Further, the EC50 in [25] stood at 23.8 nM; in test [26] it was 6.62 nM. Further, the “Relative binding activity (%)” value in [6] was determined as 53%; in test [14] it was 77%; in [21], 85%; in test [24], 86%. Also, the “Binding activity (%), PD-1 end” value in test [7] turned out to be 95%; in test [8], 107%; in [15] it was 93%; in test [16], 86%; in [17], 83%. Moreover, the “Binding activity (%), VEGF end” value in test [9] amounted to 97%; in test [10] it was 92%; in [11], 104%; in [18] it was 101%; in test [19] it was 86%; in [20] it was 78%. For the same molecule, the values for the koff in test [12] and in test [13] were 5.57e-05 s⁻¹ and 4.24e-05 s⁻¹, respectively. In addition, the kon in [12] was 64400 M⁻¹ s⁻¹; in [13], 815000 M⁻¹ s⁻¹. In addition, the IC50 in test [27] stood at 297 nM; in [28] it was 3560 nM.

B3: Bispecific antibody molecule 24 (bispecific antibody, human IgG4 S228P, kappa)
light: B1 light
heavy: not shown
notes: Anti-PD-1 IgG4 (JS001) with the anti-VEGF VHH at the C-terminus of each heavy chain; also called Antibody 24; antibody 24 (IgG4)
Consider B3, for which, in [1], the “IC50, VEGFA-induced proliferation” value worked out at 88 nM. In addition, in test [2], the “EC50 … (Jurkat PD-1 / CHO PD-L1)” value was found to be 8.17 nM. Further, the results for the Kd in test [3], in test [12] and in test [13] were under 0.5 nM, 1.21 nM and 0.191 nM, respectively. The results for the EC50 in test [4] and in [5] were 14.6 nM and 13.2 nM, respectively. Also, the “Relative binding activity (%)” value turned out to be 27% in [6], 25% in test [14], 61% in test [21] and 55% in test [24]. Besides, the “Binding activity (%), PD-1 end” value turned out to be 94% in test [7]; 86% in test [8]; 106% in [15]; 63% in test [16]; 89% in test [17]. Besides, the “Binding activity (%), VEGF end” value in test [9] was determined as 100%; in test [10], 85%; in [11], 102%; in test [18], 104%; in [19], 81%; in [20], 95%. In addition, the koff in test [12] was 9.38e-05 s⁻¹; in test [13] it was 7.92e-05 s⁻¹. Besides, the kon in [12] is 77600 M⁻¹ s⁻¹; in test [13], 414000 M⁻¹ s⁻¹. The values for the IC50 in [22] and in test [23] were 243 nM and 1080 nM, respectively.

B4: JS001 (recombinant humanized anti-PD-1 monoclonal antibody reference article, Toripalimab) (antibody, human IgG4 S228P, kappa, V domains shown)
VH: QGQLVQSGAEVKKPGASVKVSCKASGYTFTDYEMHWVRQAPIHGLEWIGVIESETGGTAYNQKFKGRVTITADKSTSTAYMELSSLRSEDTAVYYCAREGITTVATTYYWYFDVWGQGTTVTVSS
VL: DVVMTQSPLSLPVTLGQPASISCRSSQSIVHSNGNTYLEWYLQKPGQSPQLLIYKVSNRFSGVPDRFSGSGSGTDFTLKISRVEAEDVGVYYCFQGSHVPLTFGQGTKLEIKR
notes: also called TAB001; anti-PD-1 monoclonal antibody JS001
On to B4, for which the EC50 in test [4] was 3.6 nM. For the same molecule, in test [25], the EC50 amounted to 18.3 nM. Moreover, in test [12], the Kd is 0.584 nM, the koff came to 3.93e-05 s⁻¹ and the kon worked out at 67300 M⁻¹ s⁻¹. In addition, the IC50 in [22] was 135 nM. In addition, in test [27], the IC50 came to 255 nM.

For the origin of these results see EP4717714A1 (Shanghai Junshi Biosciences Co., Ltd., dated 2026).
